Reference: paper PMC9463536 (The Journal of Biological Chemistry, 2022)

Tests used:
[1] = target: T1, human claudin-4, untagged (human, UniProt O14493); assay: SEC; settings: both partners purified
T1 construct: also called hCLDN-4

[2] = target: T2, cCpE-His10 (wild type) (Clostridium perfringens, UniProt P01558); assay: BLI; settings: both partners purified
T2 construct: not shown: His10, C-terminal, kept

T1 sequence (O14493 whole entry): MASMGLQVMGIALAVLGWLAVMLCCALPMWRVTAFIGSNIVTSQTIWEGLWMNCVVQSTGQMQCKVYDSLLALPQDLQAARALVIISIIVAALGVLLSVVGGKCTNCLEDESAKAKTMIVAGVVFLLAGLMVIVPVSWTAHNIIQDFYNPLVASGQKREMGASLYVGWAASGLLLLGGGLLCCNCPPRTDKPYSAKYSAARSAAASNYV

Row | Binder | binding result [1] | Kd [2] | koff [2] | kon [2]
1 | COP-2 (CpE Obstructing Protein 2), synthetic antigen-binding fragment (Fab, V domains shown, also called sFab; source: E. coli BL21-Gold, purified (MabSelect SuRe, Resource S)) VH: EVQLVESGGGLVQPGGSLRLSCAASGFNFSSSSIHWVRQAPGKGLEWVASISSYSGYTSYADSVKGRFTISADTSKNTAYLQMNSLRAEDTAVYYCARYWSWYNSSHYIYSALDYWGQGTLVTVSS VL: DIQMTQSPSSLSASVGDRVTITCRASQSVSSAVAWYQQKPGKAPKLLIYSASSLYSGVPSRFSGSRSGTDFTLTISSLQPEDFATYYCQQSYEWAPVTFGQGTKVEIK | no binding | 67.6 ± 11.7 nM | 0.00048 s⁻¹ | 7200 M⁻¹ s⁻¹
2 | COP-3 (CpE Obstructing Protein 3), synthetic antigen-binding fragment (Fab, V domains shown, also called sFab; source: E. coli BL21-Gold, purified (MabSelect SuRe, Resource S)) VH: EVQLVESGGGLVQPGGSLRLSCAASGFNFYSSSIHWVRQAPGKGLEWVAYISSYSGYTYYADSVKGRFTISADTSKNTAYLQMNSLRAEDTAVYYCARGYGYFDYNFSVGYALDYWGQGTLVTVSS VL: DIQMTQSPSSLSASVGDRVTITCRASQSVSSAVAWYQQKPGKAPKLLIYSASSLYSGVPSRFSGSRSGTDFTLTISSLQPEDFATYYCQQSHPWYYPITFGQGTKVEIK | no binding | 138 ± 6.2 nM | 0.001 s⁻¹ | 10000 M⁻¹ s⁻¹
